{
  "source": "patent US9365620B2",
  "about": "“Methods for treating pain” (NoNO NC., priority 2008, dated 2016)",
  "note": "Entries after “also recorded” stand apart in the source; their conditions may differ. Non-standard residues stand in square brackets, D forms with d. No end group written: not given here. Tle = CC(C)(C)[C@H](N)C(=O)O; Nva = CCC[C@H](N)C(=O)O",
  "data": [
    {"biological_target": "N-type calcium channels (Mus musculus, UniProt O55017)", "assay": "not given", "format": "cell-based, Swiss mice", "details": "not given", "values": [
      {"sequence": "FGRKKRRQRRRALSSIESDV (synthetic 1995 peptide F-Tat-NR2B9c K to A) [Peptide 1995]", "Ca^2+ current shown as a percentage": "97+/−0.2%"},
      {"sequence": "KLSSIESDV (synthetic 1991 peptide 2B9c) [Peptide 1991, peptide 2B9c, the C-terminal portion of Tat-NR2B9c]", "Ca^2+ current shown as a percentage": "94+/−1.7%", "inhibition of N-type calcium channel activity": "no significant inhibition"},
      {"sequence": "YGRKKRRQRRR [Peptide 1990]", "Ca^2+ current shown as a percentage": "57+/−1.6%"},
      {"sequence": "YGRKKRRQRRRALSSIESDV (synthetic 1994 peptide Tat-NR2B9c K to A) [Peptide 1994]", "Ca^2+ current shown as a percentage": "77+/−1.8%", "inhibition of N-type calcium channel activity": "no significant inhibition; also recorded: some reduction in the amount of N-type calcium channel activity"},
      {"sequence": "YGRKKRRQRRRKLSSIEADA (synthetic 1992 peptide Tat-NR2B9c-AA) [Peptide 1992]", "Ca^2+ current shown as a percentage": "74+/−2.4%", "inhibition of N-type calcium channel activity": "some reduction in the amount of N-type calcium channel activity"},
      {"sequence": "YGRKKRRQRRRKLSSIESDV [1987] ([dY]G[dR][dK][dK][dR][dR][dQ][dR][dR][dR][dK][dL][dS][dS][dI][dE][dS][dD][dV]) [Peptide 1987, D-isomer of Tat-NR2B9c]", "Ca^2+ current shown as a percentage": "82+/−2.2%", "inhibition of N-type calcium channel activity": "some reduction in the amount of N-type calcium channel activity"},
      {"sequence": "YGRKKRRQRRRKLSSIESDX [1976] (YGRKKRRQRRRKLSSIESD[Nva]) [Peptide 1976, …X where X=norvaline]", "Ca^2+ current shown as a percentage": "66+/−3.4%"},
      {"sequence": "YGRKKRRQRRRKLSSIESDX [1977] (YGRKKRRQRRRKLSSIESD[Tle]) [Peptide 1977, …X where X=L-t-butyl-glycine]", "Ca^2+ current shown as a percentage": "65+/−5.1%"}
    ]},
    {"tested_on": "pain hypersensitivity after peripheral nerve injury", "assay": "Paw withdrawal threshold (von Frey) after chronic constriction injury of the sciatic nerve", "format": "in vivo, Sprague-Dawley rats", "details": "high dose, 10 mg/kg i.v., rats, 60, 90, 120 min; 10 mg/kg", "excerpt": "(§1) In these experiments, chronic constriction injury of the sciatic nerve was induced using the polyethylene cuff method (Mosconi T, Kruger L., Pain 1996, 64: 37-57). The left sciatic nerve of adult male Sprague-Dawley rats was exposed at mid-thigh level under halothane anesthesia. A polyethylene cuff (PE90 tubing, 2 mm in length) was slit open longitudinally and implanted around the sciatic nerve, and the animals were allowed to recover for a suitable period, e.g., 10-14 days. A sterile isotonic saline solution containing dissolved Tat-NR2B9c, or a saline-only control, was injected into the tail vein, with the animal under brief halothane anesthesia. Sensitivity to pain was measured by testing the paw withdrawal threshold of animals. Paw withdrawal thresholds to mechanical stimulation were assessed using Von-Frey filaments (Stoelting Co., Wood Dale, Ill., USA). Animals were placed in plastic cages with a plastic bottom. To test the tactile threshold required to evoke withdrawal of the stimulated paw, von Frey filaments (0.008-15.18 g) were applied perpendicularly to the plantar part of the hind paw in an ascending order. Each filament was applied for 5 times, and the paw withdrawal threshold was determined when there were three positive responses out of five times a filament was applied. To avoid tissue damage, the cut off threshold was assigned as 15.18 g.", "values": [
      {"sequence": "YGRKKRRQRRRKLSSIESDV (Synthetic peptide Tat-NR2B9c) [chimeric peptide of a standard tat peptide and …]", "reversal of pain hypersensitivity (paw withdrawal threshold)": "did not result in any apparent reversal of pain hypersensitivity; also recorded: had no effect on pain hypersensitivity; also recorded: showed no effect on pain hypersensitivity"}
    ]},
    {"tested_on": "pain hypersensitivity after peripheral nerve injury", "assay": "Paw withdrawal threshold (von Frey) after chronic constriction injury of the sciatic nerve", "format": "in vivo, Sprague-Dawley rats", "details": "low dose, 100 pmol per animal i.v., rats, day 10-14 after surgery", "excerpt": "as §1", "values": [
      {"sequence": "YGRKKRRQRRRKLSSIESDV (Synthetic peptide Tat-NR2B9c) [chimeric peptide of a standard tat peptide and …]", "reversal of pain hypersensitivity (paw withdrawal threshold)": "reversed pain hypersensitivity; also recorded: showed a decrease in pain hypersensitivity"}
    ]},
    {"biological_target": "N-type Ca channels (Homo sapiens, UniProt Q00975)", "assay": "not given", "format": "binding", "details": "peptide at 10 μM", "units": {"inhibition of radiolabeled ω-Conotoxin GVIA binding to N-type Ca channels": "%"}, "values": [
      {"sequence": "YGRKKRRQRRRKLSSIESDV [Tat-NR2B9c] (Synthetic peptide Tat-NR2B9c) [chimeric peptide of a standard tat peptide and …]", "inhibition of radiolabeled ω-Conotoxin GVIA binding to N-type Ca channels": 100}
    ]}
  ]
}
